Laboratory results taken from publication doi:10.1101/390674 (bioRxiv, 2018).

Target: ribosomal protein uL16 (Escherichia coli (strain MRE600), UniProt P0ADY7 1-136)
Test: cryo-EM structure

binding result: binds
B1: initiation factor 2, γ-isoform (natural protein)
chain: not shown
